Data: patent publication US20220259324A1 (MINERVA BIOTECHNOLOGIES, published 2022)
Changes are numbered by the printed parent chain. Values belong to the binder of their own block, whether it stands above or below them.

Key:
[1] = biological target: T1, Human NME7-AB, also known as NME7AB (recombinant, devoid of the DM10 domain) (human, UniProt Q9Y5B8 92-376); assay: ELISA, plate coated with recombinant NME7-AB (FIG. 24)
T1 construct: Recombinant, expressed in E. coli, purified over NTA-Ni and by size exclusion; monomer of about 33 kDa; also called NME-AB
T1 sequence: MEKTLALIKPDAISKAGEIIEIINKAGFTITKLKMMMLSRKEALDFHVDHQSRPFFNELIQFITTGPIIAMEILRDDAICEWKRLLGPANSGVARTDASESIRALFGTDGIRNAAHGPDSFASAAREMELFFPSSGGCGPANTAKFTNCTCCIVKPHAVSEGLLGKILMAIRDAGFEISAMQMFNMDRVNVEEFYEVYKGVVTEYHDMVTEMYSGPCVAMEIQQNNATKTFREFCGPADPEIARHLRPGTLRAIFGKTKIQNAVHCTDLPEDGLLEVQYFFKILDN

[2] = biological target: T1, Human NME7-AB, also known as NME7AB …; assay: sandwich ELISA, HRP signal (FIG. 1)
Procedure: The PSMGFR peptide bearing a C-terminal Cysteine (PSMGFR-Cys) was covalently coupled to BSA using Imject Maleimide activated BSA kit (Thermo Fisher). PSMGFR-Cys coupled BSA was diluted to 10 ug/mL in 0.1M carbonate/bicarbonate buffer pH 9.6 and 50 uL was added to each well of a 96 well plate. After overnight incubation at 4° C., the plate was washed twice with PBS-T and a 3% BSA solution was added to block remaining binding site on the well. After 1h at RT the plate was washed twice with PBS-T and NME7, diluted in PBS-T+1% BSA, was added at different concentrations. After 1h at RT the plate was washed 3× with PBS-T and anti-NM23-H7 (B-9, Santa Cruz Biotechnology), diluted in PBS-T+1% BSA, was added at 1/500 dilution. […] After 1h at RT the plate was washed 3× with PBS-T and binding of NME7 was measured at 415 nm using ABTS solution (Pierce). […]
After 1h at RT the plate was washed 3× with PBS-T and His-Tagged PSMGFR peptide (PSMGFR-His) or biotinylated PSMGFR peptide (PSMGFR-biotin), diluted in PBS-T+1% BSA, was added at different concentration. […] After 1h at RT the plate was washed 3× with PBS-T and binding of PSMGFR peptide to NME7 already bound to another PSMGFR peptide (which could not signal by anti-His antibody or by streptavidin) coupled BSA was measured at 415 nm using a ABTS solution (Pierce).

binding result [1]: binds
B1: Monoclonal antibody 8F9A4A3 (antibody, V domains shown)
VH: VQLQQSGPELVKPGASVKISCKTSGNTFTEYTMHWVKQSHGKSLEWIGGFNPNNGVTNYNQKFKGKATLTVDKSSSTAYMELRSLTSEDSAVYYCARRYYHSLYVFYFDYWGQGTTLTVSS
VL: ETTVTQSPASLSMAIGEKVTIRCITSTDIDDDMNWYQQKPGEPPKLLISEGNTLRPGVPSRFSSSGYGTDFVFTIENMLSEDVADYYCLQSDNLPLTFGSGTKLEIKR
notes: Mouse monoclonal antibody

binding result [1]: binds
B2: Monoclonal Antibody 5F3A5D4 (antibody, V domains shown)
VH: B1 VH with E9D, A15T, L103T, Y110S
VL: DIQMTQTTSSLSASLGDRVTISCSASQGISNYLNWFQQKPDGTIKLLIYYTSSLHSGVPSRFSGSGSGTDYSLTISNVEPEDIATYYCQQYSKLPYTFGGGTKLEIKR
notes: Mouse monoclonal antibody

binding result [2]: binds
B3: PSMGFR peptide (MUC1* extra cellular domain peptide) (peptide)
peptide: GTINVHDVETQFNQYKTEAASRYNLTISDVSVSDVPFPFSAQSGA
notes: Synthetic peptide immobilized on ELISA plates; also called MUC1* peptide; FLR

binding result [1]: binds
B4: Monoclonal Antibody 8F9A5A1 (antibody, V domains shown)
VH: IQLVQSGPELKKPGETVKISCKASGYTFTNYGMNWVKQAPGKGLKWMGWINTYTGEPTYVDDFKGRFAFSLETSATTAYLQINNLKNEDTSTYFCARLRGIRPGPLAYWGQGTLVTVSA
VL: EILLTQSPAIIAASPGEKVTITCSASSSVSYMNWYQQKPGSSPKIWIYGISNLASGVPARFSGSGSGTSFSFTINSMEAEDVATYYCQQRSSYPPTFGGGTKLEIKR
notes: Mouse monoclonal antibody
